Reference: the DeepSol protein solubility set

Assay: soluble on expression in E. coli; label from the status in PepcDB or PDB records
With “MGLMKFQLFIQPKLDVLQGNIVEYEILLRDDSAVPRFPLSELEAVLADEELYLAFSEWFSEAFLDVLKKYPNDRFAINIAPQQLFYIETLHWLDKLKSESHRITVEMTEDIFDVPGHKRHLNANDKNAFILNKIKVIHGLGYHIAIDDVSCGLNSLERVMSYLPYIIEIKFSLIHFKNIPLEDLLLFIKAWANFAQKNKLDFVVEGIETKETMTLLESHGVSIFQGYLVNKPFPV” the “soluble on expression in E. coli” value was “soluble”.
In the case of “MGLRRGWTPPWPLDLGIVLGPLRRGPGDPTFRTTPDGAVWRASRTPAGPGTLRVALRGGAVEAEAWGPGAEWLLHQLPEMLGSADDPDAFEPRHRLVAVTRHRRPGLRLTRTGLVLESLIPSVLEQKVTADEAYRAWRLLVRKFGEPAPGPVEGRMHVMPEPRTWALIPSWEWHRAGVDNKRASTILRAVRVAARLEQAMGMEPAQAQARLEVVSGIGPWTSAETVQRSHGAADSVTVGDLHLPRIVGYALAGDRDADDAAMLELLAPYAGQRHRAARLILLSGRTPPAAALEHHHHHH”, the “soluble on expression in E. coli” value is reported as “not soluble”.
With “MGLSGFHSFLCCRSRDYHLVINTLIHTVMTMDITKSVAFTGHRSERILQVRMLYLYLDIVSQVKRLYSLGYRYFLSGMAEGFDLLAAQAVTALKAEYTDIRLIAVVPFSRQSNRYRPENKSLYDRIMKTADETVILREDYRKGCFHHRNDYLIDNSEIVLAYWDKQPYGGTYYTVGKARMVNRIIINLYK” the “soluble on expression in E. coli” value was “not soluble”.
For “MGLYDKYARLAGERLQFSDNGLTPFGTCIDEVYSATEGRIGNKKVILAGTNNYLGLTFNHDAISEGQAALAAQGTGTTGSRMANGSYAPHLALEKEIAEFFNRPTAIVFQPVIPLI”, the “soluble on expression in E. coli” value was “not soluble”.
With “MGMVGFRRSRHRRLGAGCGRAGGCMSGVEVITFGCRLNTYESEVMRAEAEKAGLNNAVLVNTCAVTGEAVRQARQAIRRARRDNPHARIIVTGCAAQTEKQTFADMPEVDAVLGNEEKLKSASYRALPDFGVSAEEKLRVNDIMSIKATAPQMVKHIDGHVRAFIQVQNGCDHRCTFCIIPYGRGNSRSVPMGAVVDQARRLTESGYCEIVLTGVDATSYGADLPGEPSLGYLAKTLLKQVPDIIRLRLSSIDSIEADHHLMDLIADEPRFMPHLHLSLQHGDDMILKRMKRRHLRADAIRFCNEVRSLRPDIAFGADMIAGFPTETEEMLENAATLAEECGISSLHVFPYSPREGTPAVRMPQLDRALVKERAGRLRARGEALKQAHLQNMVGSVQTVLVENSGFAHTDNFTLVAAPDLAPRTLAQVAITGHNGKHLNMKLLAADAALEHHHHHH” the “soluble on expression in E. coli” value was “not soluble”.
In the case of “MGNCWFKGNPYFNRVSSNATKSESPKMQSPSERKEKDDSMLPSNAKEVEELRRESARNPLIAFTFEELKRITKNFRQDSLLGGGGFGRVYKGYITSDLREGLTIEEPLRVAVKVHDGDNSFQGHREWLAEVIFLGQLSHPNLVKLIGYCCEDDHRVLVYEFMPLGSVESHLFSRVMVPLPWFTRMKIALGAAKGLAFLHEAEKPVIYRDFKTSNILLDEEYNAKLSDFGLAKDGPVGDKSHVSTRIMGTYGYAAPEYIMTGHLTAMSDVYSYGVVLLELLTGRKSLDKSRPVREQTLADWAFPMLIQKKKVLGIVDPRLAEDYPVKAVQKTAMLAYHCLNRNPKARPLMRDIVATLEPLQQMEEDPSISLVSGTEV”, the “soluble on expression in E. coli” value is reported as “soluble”.
With “MGNRLKAARSPYLLAHAEDPVDWYPFGEEAFRKAQAEDKPIFLSVGYASCHWCHVMHRESFQDEEVARLLNAHFVPVKVDREERPDVDAAYMRALVSLTGQGGWPMSLFLTPEGKPFFGGTYFPKEDRMGLPGFKRVLVAVAEAWAGKREAILEEAERLTRALWKSLSPPPGPLPEGAEEEALDHLERAFDPEWGGFLPAPKFPQGPLLLYLLARAWEGEERAARLLRPTLRAMALGGVYDQVGGGFHRYSVDRFWRLPHFEKMLYDNALLARVYLGAYKLFGEDLFLRVARETLDWLLSMQRREGGFHTALDAESEGEEGRYYTWTEAELREALGEDFPLARRYFALGEDLGERSVLTAWGEAEARKALGEGFFAWREGVRAKLQGARRRRMPPALDDKVLADWSALAVRALAEAGRLFGEERYLEAAKRGARFLLAHMYREGLLRHTWRGSLGEEAYLSDQAFAALAFLELYAATGEWPYLDWAQRLAEAGWRLFREGPSLPLPAKEVEEGALPSGESALAEALVRLGAVFGGDYRERAEEVLAEKARWLARYPHALPGALLAKALWERGTELALPLPSPLLEAARGAFLPLTQLVLGPAGALPALEGREAGKAYVCRRGVCLLPVDRWEEVEARVRGDD” the “soluble on expression in E. coli” value was “soluble”.
In the case of “MGNSHSVTTALHSVLKQREIKVSTRTLETFIKEIERISPWYACSGSLTLSSWEKLREDLAKEQQNGKLKAGTMPLWKLVRSCLEDERCRPAIITGQAILEEAQDSMAETEWCERLGAPKKGKCAQSKKPFQRP”, the “soluble on expression in E. coli” value is reported as “soluble”.
For “MGPLWLDVAGYELSAEDRAILAHPTVGGVILFGRNYHDNQQLLALNKAIRQAAARPILIGVDQEGGRVQRFREGFSRIPPAQYYARAENGVELAEQGGWLMAAELIAHDVDLSFAPVLDMGFACKAIGNRAFGEDVQTVLKHSSAFLRGMKAVGMATTGKHFPGHGAVIADSHLETPYDERETIAQDMAIFRAQIEAGVLDAMMPAHVVYPHYDAQPASGSSYWLKQVLREELGFKGIVFSDDLSMEGAAVMGGPVERSHQALVAGCDMILICNKREAAVEVLDNLPIMEVPQAEALLKKQQFSYSELKRLERWQQASANMQRLIEQFSEHHHHHHHHHH”, the “soluble on expression in E. coli” value was “soluble”.
For “MGQAGKQVAPVKCKGWAVEKPALKWSTDAVRLSDVTVPAPDPTQIRVRVYAASINPVDWKRVMFPASGSGPGVAGSALKGFKGMHHKPPNYPYPYVVGVDGAGEVESVGRKVTGLKAGDRVMFHSSLTNAHGGSLCEYAVMEESVAVPIPADGARPFSYEEAAAIPCATWTAYVALFDKLRIEPGRSIFVDGASGAVGSCAVQLAHHMGLYVFASCSPSNADYVRSIGADQVLNYHDGIEMVDQILDATEGYGVDYYLAVTNTQDAESFTDALRFGGAVCLLSGVLIPNSNVLFRRQLSVHYVFLNGLHGHPLTRPQLRYIGDQVAKLYQSGAFRLD”, the “soluble on expression in E. coli” value was “not soluble”.
With “MGQLVDGVWHDTWYETKSTGGHFKRSESAFRNWVTPDGAPGLTGKGGFPAQSGRYHLYVSLACPWAHRTLLMRQLKGLEDHIAVSVVHPLMLDHGWTFGTDFEAATGDSLYQHEFLYQLYLHAKPDYSGRVTVPVLWDTEQHTVVSNESADIIRMLNSAFDGVGAIAGDYYPEALRTQIDELNSWIYDKVNNGVYKAGFATTQSAYDESASTVFAALSDLETILAKQRYLTGEQLTEADLRLWTTLIRFDPVYHTHFKCDKYRLSDYPNLFGFLRDIYQMPGIAETVDMAHIRHHYYRSHGLEHHHHHH” the “soluble on expression in E. coli” value was “not soluble”.
For “MGQTTEAQSLKYGEREIENGELITFPNPRPGRRYTINITLPEYTCKCPFSGYPDFATIYITYVPDQKVVELKAIKLYINSYRDRYISHEEAVNQILDDLVAACDPLEMTIKGDYQPRGNVHTVIEVTHTKEQA”, the “soluble on expression in E. coli” value was “not soluble”.
For “MGRGEHKEHKRKRSRSKERKRSRSRSPRGSREHREHRDRDRDRERRRERDTDREKTRDREKQRDAEKKKEKESKTAIFEMEESRNDTEEVMKMKEAELLQGVERRRRNVEKWRAQKKKEELDLQSEQSDEKSEKKPWNLEDEDDEDEFDIKNEGISEENPVKMEEKVEKMDTDDEEDPLDAFMKEIATKNAKKTGNSTQKASGIVTIVQEEKPEPEKGQVLENEDNMDMVIDDFDIETAAASLCHKGRMLAQTDHSKVYYRKFKKNFYIETEEIRRMTKAEVKAYREELDSITVKGIDCPKPIKTWAQCGVNLKMMNVLKKFEYSKPTSIQAQAIPSIMSGRDVIGIAKTGSGKTLAFLLPMFRHILDQPELEEGDGPIAVILAPTRELAMQTYKEANKFAKPLGLKVACTYGGVGISEQIADLKRGAEIVVCTPGRMIDVLAANSGKVTNLRRVTYLVLDEADRMFDKGFEPQIMKVVNNIRPDKQTVLFSATFPRHMEALARKVLDKPVEILVGGKSVVCSDITQNAVICAEHQKFLKLLELLGMYYEEGSSIVFVDKQEKADDIVDQLMRTGYNSVAPLHGGIDQHDRDSSIADFKTGVIKVLVATSVAARGLDVKNLILVVNYDCPNHYEDYVHRVGRTGRAGRKGYAYTFVLPEHQEKMAGEICRAFETAGCKPPADLKAMFERFKSEMAAEGKEVKLGGKGFEGSGYKYDEGEAEADANKKRMTRLTAQLQRGGTQARYKV”, the “soluble on expression in E. coli” value was “not soluble”.
